Laboratory results as given in paper PMC6703420, “How Thermophilic Gram-Positive Organisms Perform Extracellular Electron Transfer: Characterization of the Cell Surface Terminal Reductase OcwA” (mBio, 2019).

B1: OcwA (Outer cell wall protein A), TherJR_2595 (Thermincola carboxydiphila JR) (protein)
chain: EKPADSGPAVAQNTEYVGDEACKTCHSDVHSAWSETSHGNFIKDVTKDPKALPGNFEGNYPKMLNFKAEDIQYVLLGKPGALKVQELVGKKGTFGVPADDYPVMWASWDAGKGEWEIEVEAIGEGTPWLSTCAGCHVTGLTVPTDKNPKAAKAFAGFGITCEQCHGPGAKHIKNPQGEKMVISYDAENCGQCHSRGDSVAKTPDGKPFGYPYNDEGQYVPGKKLADYYTVVSVEGDKEGKLFWPTKHAKNSHHLQYPEWLMTGHATALETLKGNGHAQDRCLKCHSAEAYLAKEGTTVTMNDAKLGVTCQVCHASHDPAATKEAFLRKPKTEICTQCHNAEGGIVAGKEVHHPHKEMNEGKIGLGFPDSPSVMYKAGVTCVDCHMPKTAGPKASHLMKVVMPKDGKANGMPDSCSSCHPGASQDYLQNVIDTWQNDIKGRLAKVKAKLDAKKAAANSQAYKEALTYYSIVAADGSNGVHNYDLAVKLLTAAEQKLQ
notes: native signal peptide replaced by that of S. oneidensis MR-1 stc, cleaved (N-terminus EKPAD); E. coli JM109(DE3), HisTrap purified; ~62 kDa; nine c-type hemes; monomer/dimer mixture; precursor 525 residues

What was measured:
[1] = biological target: T1, OcwA (Outer cell wall protein A), TherJR_2595 (Thermincola carboxydiphila, UniProt D5XBK3); assay: […] NMR titration; assay type: binding; details: 100 μM FMN, 20 mM phosphate pH 7.6, 100 mM KCl, 25°C; slow exchange
T1 construct: native signal peptide replaced by that of S. oneidensis MR-1 stc, cleaved (N-terminus EKPAD); E. coli JM109(DE3), HisTrap purified; ~62 kDa; nine c-type hemes; monomer/dimer mixture; precursor 525 residues

purified protein = substrate: O=NO; assay: purified protein; assay type: biochemical, Thermincola carboxydiphila; details: up to 1 mM reduced methyl viologen, 50 mM potassium phosphate pH 7.0, 55°C, anaerobic

Molecule | 31P NMR titration [1] | Km (purified protein) [µM] | kcat (purified protein) [s⁻¹]
Cc1cc2nc3c(=O)[nH]c(=O)nc-3n(C[C@H](O)[C@H](O)[C@H](O)COP(=O)(O)O)c2cc1C [FMN, flavin mononucleotide] | These spectral changes arise from binding of FMN to OcwA in a slow exchange regime |  | 
B1 |  | 65 | 0.017
